Reference: US20080027145A1, “Therapeutic Molecules and Methods for Generating and/or Selecting Same” (priority 2004, published 2008)

How the values were obtained:
[1] = biological target: mouse A1 ΔC20 (mouse) (UniProt Q07440); assay: Biacore solution competition against immobilised mouse wtBimBH3
[2] = biological target: mouse Mcl-1 ΔN151 ΔC23 (mouse) (UniProt P97287); assay: as above
[3] = biological target: mouse A1 ΔC20 (mouse) (UniProt Q07440); assay: solution competition on Biacore
[4] = biological target: Bcl-2, BCl-xL and Bcl-w; assay: solution competition on Biacore

mouse Mcl-1 ΔN151 ΔC23 (mouse), sequence (P97287 other isoform, or with tags, fused parts or gaps mutant): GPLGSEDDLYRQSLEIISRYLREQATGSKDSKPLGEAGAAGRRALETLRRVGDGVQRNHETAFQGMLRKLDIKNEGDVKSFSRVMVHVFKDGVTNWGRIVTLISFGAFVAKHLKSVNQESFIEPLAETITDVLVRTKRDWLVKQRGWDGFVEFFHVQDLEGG
mouse A1 ΔC20 (mouse), sequence (Q07440 other isoform, or with tags, fused parts or gaps mutant): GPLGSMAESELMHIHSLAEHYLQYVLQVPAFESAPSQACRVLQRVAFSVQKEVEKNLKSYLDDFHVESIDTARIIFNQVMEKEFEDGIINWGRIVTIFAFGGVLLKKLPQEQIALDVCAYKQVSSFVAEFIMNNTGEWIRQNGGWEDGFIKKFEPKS

HRAEVQIARKLQCIADQFHRLHTQ [m Bmf (128-151) BH3 peptide]
IC50 [1]: 1800 nM | IC50 [2]: 1100 nM

NLWAAQRYGRELRRMSDEFVDSFKKG [Bad (103-128) BH3 peptide, human]
IC50 [3]: 15 µM | IC50 [4]: 5.3 to 30 nM | IC50 [1]: 15000 nM | IC50 [2]: > 100000 nM

DIIRNIARHLAQVGDSMDRSIPPG [Bid (81-104) BH3 peptide, human]
IC50 [1]: 9.3 nM

PAELEVECATQLRRFGDKLNFRQKLL [Noxa (18-43) BH3 peptide, human]
IC50 [1]: 180 nM | IC50 [2]: 24 nM
